Source: article PMC10397247
Values belong to the binder of their own block, whether it stands above or below them.

Assays:
Experiment in all cases: two-hybrid library CCNG1;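 also: natural log of median RNA to DNA barcode read ratio; higher means stronger binding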
4H3462-bH = target: T1, 4H3462-bH
T1 chain: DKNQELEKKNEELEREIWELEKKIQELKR

4H3613-bH = target: T2, 4H3613-bH
T2 chain: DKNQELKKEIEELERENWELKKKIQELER

4H3175-bH = target: T3, 4H3175-bH
T3 chain: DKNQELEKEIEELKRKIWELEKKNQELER

4H607-bH = target: T4, 4H607-bH
T4 chain: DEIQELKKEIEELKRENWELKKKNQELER

4H3277-bH = target: T5, 4H3277-bH
T5 chain: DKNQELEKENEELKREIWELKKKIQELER

4H626-bH = target: T6, 4H626-bH
T6 chain: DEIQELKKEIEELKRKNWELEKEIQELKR

4H3162-bH = target: T7, 4H3162-bH
T7 chain: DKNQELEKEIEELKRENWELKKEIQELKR

4H3628-bH = target: T8, 4H3628-bH
T8 chain: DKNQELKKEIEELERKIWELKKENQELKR

4H3298-bH = target: T9, 4H3298-bH
T9 chain: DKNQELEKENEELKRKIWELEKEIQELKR

4H3926-bH = target: T10, 4H3926-bH
T10 chain: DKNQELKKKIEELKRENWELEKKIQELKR

4H3497-bH = target: T11, 4H3497-bH
T11 chain: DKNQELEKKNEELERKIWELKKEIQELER

4H906-bH = target: T12, 4H906-bH
T12 chain: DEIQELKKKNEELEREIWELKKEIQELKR

4H591-bH = target: T13, 4H591-bH
T13 chain: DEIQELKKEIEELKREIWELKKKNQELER

O7-bA = target: T14, O7-bA
T14 chain: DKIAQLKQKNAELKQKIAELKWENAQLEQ

O3-bA = target: T15, O3-bA
T15 chain: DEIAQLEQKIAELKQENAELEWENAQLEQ

O16-bA = target: T16, O16-bA
T16 chain: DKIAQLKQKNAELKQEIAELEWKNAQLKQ

O15-bA = target: T17, O15-bA
T17 chain: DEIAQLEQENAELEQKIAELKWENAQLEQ

O8-bA = target: T18, O8-bA
T18 chain: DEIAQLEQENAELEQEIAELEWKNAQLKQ

O4-bA = target: T19, O4-bA
T19 chain: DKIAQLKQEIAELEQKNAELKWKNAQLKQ

O2-bA = target: T20, O2-bA
T20 chain: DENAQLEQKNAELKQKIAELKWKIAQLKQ

O9-bA = target: T21, O9-bA
T21 chain: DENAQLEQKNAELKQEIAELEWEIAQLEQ

O6-bA = target: T22, O6-bA
T22 chain: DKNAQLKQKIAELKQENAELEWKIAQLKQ

O5-bA = target: T23, O5-bA
T23 chain: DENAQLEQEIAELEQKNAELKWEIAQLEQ

4H3010-bA = target: T24, 4H3010-bA
T24 chain: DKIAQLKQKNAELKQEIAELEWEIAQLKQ

4H4073-bA = target: T25, 4H4073-bA
T25 chain: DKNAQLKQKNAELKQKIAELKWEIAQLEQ

4H797-bA = target: T26, 4H797-bA
T26 chain: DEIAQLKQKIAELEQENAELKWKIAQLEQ

4H3112-bA = target: T27, 4H3112-bA
T27 chain: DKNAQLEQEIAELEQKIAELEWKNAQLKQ

4H575-bA = target: T28, 4H575-bA
T28 chain: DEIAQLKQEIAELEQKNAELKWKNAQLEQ

4H968-bA = target: T29, 4H968-bA
T29 chain: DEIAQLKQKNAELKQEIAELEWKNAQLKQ

4H953-bA = target: T30, 4H953-bA
T30 chain: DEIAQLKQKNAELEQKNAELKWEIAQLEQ

4H918-bA = target: T31, 4H918-bA
T31 chain: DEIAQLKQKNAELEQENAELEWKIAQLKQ

4H754-bA = target: T32, 4H754-bA
T32 chain: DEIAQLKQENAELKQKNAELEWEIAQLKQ

4H457-bA = target: T33, 4H457-bA
T33 chain: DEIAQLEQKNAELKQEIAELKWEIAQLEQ

4H683-bA = target: T34, 4H683-bA
T34 chain: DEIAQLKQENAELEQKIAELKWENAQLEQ

4H3427-bA = target: T35, 4H3427-bA
T35 chain: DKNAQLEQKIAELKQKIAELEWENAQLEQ

4H346-bA = target: T36, 4H346-bA
T36 chain: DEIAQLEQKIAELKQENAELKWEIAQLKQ

4H3926-bA = target: T37, 4H3926-bA
T37 chain: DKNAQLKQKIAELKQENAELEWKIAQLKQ

4H2702-bA = target: T38, 4H2702-bA
T38 chain: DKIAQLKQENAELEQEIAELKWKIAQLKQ

4H780-bA = target: T39, 4H780-bA
T39 chain: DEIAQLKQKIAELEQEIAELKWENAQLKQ

4H855-bA = target: T40, 4H855-bA
T40 chain: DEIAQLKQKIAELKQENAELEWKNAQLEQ

4H619-bH = target: T41, 4H619-bH
T41 chain: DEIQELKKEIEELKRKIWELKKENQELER

4H3858-bH = target: T42, 4H3858-bH
T42 chain: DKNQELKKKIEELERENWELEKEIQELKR

4H72-bH = target: T43, 4H72-bH
T43 chain: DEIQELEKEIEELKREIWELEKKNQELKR

4H3414-bH = target: T44, 4H3414-bH
T44 chain: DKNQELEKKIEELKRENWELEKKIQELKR

4H3129-bH = target: T45, 4H3129-bH
T45 chain: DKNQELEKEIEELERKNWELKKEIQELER

4H3638-bH = target: T46, 4H3638-bH
T46 chain: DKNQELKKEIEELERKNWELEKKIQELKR

4H3817-bH = target: T47, 4H3817-bH
T47 chain: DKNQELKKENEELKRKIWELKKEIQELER

4H850-bH = target: T48, 4H850-bH
T48 chain: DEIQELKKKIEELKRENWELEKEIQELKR

4H1985-bH = target: T49, 4H1985-bH
T49 chain: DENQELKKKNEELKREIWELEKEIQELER

4H3631-bH = target: T50, 4H3631-bH
T50 chain: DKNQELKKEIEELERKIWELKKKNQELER

4H3974-bH = target: T51, 4H3974-bH
T51 chain: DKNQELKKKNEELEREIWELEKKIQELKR

4H584-bH = target: T52, 4H584-bH
T52 chain: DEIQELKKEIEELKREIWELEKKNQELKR

4H570-bH = target: T53, 4H570-bH
T53 chain: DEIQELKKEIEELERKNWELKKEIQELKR

4H3172-bH = target: T54, 4H3172-bH
T54 chain: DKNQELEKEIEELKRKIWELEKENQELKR

O3 = target: T55, O3
T55 chain: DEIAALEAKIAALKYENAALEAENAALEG

O6 = target: T56, O6
T56 chain: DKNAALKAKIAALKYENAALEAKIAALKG

O2 = target: T57, O2
T57 chain: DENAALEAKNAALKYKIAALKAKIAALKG

O4 = target: T58, O4
T58 chain: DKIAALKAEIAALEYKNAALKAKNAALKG

O5 = target: T59, O5
T59 chain: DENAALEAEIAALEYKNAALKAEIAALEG

O8 = target: T60, O8
T60 chain: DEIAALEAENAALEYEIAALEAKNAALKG

O7 = target: T61, O7
T61 chain: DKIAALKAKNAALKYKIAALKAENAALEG

O9 = target: T62, O9
T62 chain: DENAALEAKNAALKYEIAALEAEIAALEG

interaction score (4H3462-bH): -0.66
interaction score (4H3613-bH): 0.334
interaction score (4H3175-bH): -1.88
interaction score (4H607-bH): -2.63
interaction score (4H3277-bH): -0.247
interaction score (4H626-bH): -1.98
interaction score (4H3162-bH): 0.549
interaction score (4H3628-bH): -1.68
interaction score (4H3298-bH): -0.633
interaction score (4H3926-bH): 1.52
interaction score (4H3497-bH): -0.619
interaction score (4H906-bH): -0.0502
interaction score (4H591-bH): -0.636
Binder: DKNQELEKEIEELKRENWELKKEIQELKR [4H3162-bH]

interaction score (O7-bA): 2.14
interaction score (O3-bA): -0.879
interaction score (O16-bA): 2.36
interaction score (O15-bA): -0.126
interaction score (O8-bA): -0.111
interaction score (O4-bA): -0.146
interaction score (O2-bA): 0.492
interaction score (O9-bA): -0.575
interaction score (O6-bA): 2.5
interaction score (O5-bA): 1.69
Binder: DENAQLEQEIAELEQENAELEWKIAQLKQ [O14-bA]

interaction score (O7-bA): 1.63
interaction score (O3-bA): -1.21
interaction score (O16-bA): 2.52
interaction score (O15-bA): -1.57
interaction score (O8-bA): -0.714
interaction score (O4-bA): -0.5
interaction score (O2-bA): -0.458
interaction score (O9-bA): -0.0414
interaction score (O6-bA): -0.551
interaction score (O5-bA): -0.66
Binder: DEIAQLEQENAELEQKIAELKWENAQLEQ [O15-bA]

interaction score (O7-bA): -1.07
interaction score (O3-bA): -1.05
interaction score (O16-bA): -1.53
interaction score (O15-bA): 0.435
interaction score (O8-bA): 0.83
interaction score (O4-bA): -1.31
interaction score (O2-bA): -1.17
interaction score (O9-bA): -0.882
interaction score (O6-bA): 1.39
interaction score (O5-bA): 0.182
Binder: DKNAQLKQKIAELKQKNAELKWEIAQLEQ [O13-bA]

The next lines start with the binder.

Binder: DKIAQLKQENAELEQEIAELKWKIAQLKQ [4H2702-bA]
interaction score (4H3010-bA): 2.07
interaction score (4H4073-bA): 2.39
interaction score (4H797-bA): -1.02
interaction score (4H3112-bA): 0.438
interaction score (4H575-bA): -1.27
interaction score (4H968-bA): 2.68
interaction score (4H953-bA): 1.82
interaction score (4H918-bA): -0.134
interaction score (4H754-bA): -1.37
interaction score (4H457-bA): 1.03
interaction score (4H683-bA): -1.86
interaction score (4H3427-bA): 0.956
interaction score (O15-bA): 0.113
interaction score (4H346-bA): 0.224
interaction score (O4-bA): -0.822
interaction score (4H3926-bA): 1.22
interaction score (4H2702-bA): 1.87
interaction score (4H780-bA): -1.04
interaction score (4H855-bA): -1.38

Binder: DENQELKKKNEELKREIWELEKEIQELER [4H1985-bH]
interaction score (4H3462-bH): -0.482
interaction score (4H619-bH): -1.32
interaction score (4H3858-bH): -1.02
interaction score (4H72-bH): -0.781
interaction score (4H3613-bH): -1.08
interaction score (4H3414-bH): -0.255
interaction score (4H3129-bH): -0.549
interaction score (4H3638-bH): -0.17
interaction score (4H3817-bH): -0.0213
interaction score (4H3175-bH): -0.853
interaction score (4H850-bH): -0.707
interaction score (4H1985-bH): -2.13
interaction score (4H3631-bH): 0.015
interaction score (4H3974-bH): 0.0704
interaction score (4H3277-bH): -0.449
interaction score (4H626-bH): -2.1
interaction score (4H584-bH): -1.1
interaction score (4H3162-bH): -1.36
interaction score (4H570-bH): -0.979
interaction score (4H3628-bH): -0.631
interaction score (4H3172-bH): -1.84
interaction score (4H3298-bH): -0.821
interaction score (4H3926-bH): -0.572
interaction score (4H3497-bH): -0.884
interaction score (4H906-bH): -0.874
interaction score (4H591-bH): -1.01

Binder: DENAALEAKNAALKYKIAALKAKIAALKG [O2]
interaction score (O3): -1.84
interaction score (O6): -2.66
interaction score (O2): -2.16
interaction score (O4): -1.83
interaction score (O5): -1.97
interaction score (O8): -0.949
interaction score (O7): -2.4
interaction score (O9): 0.313
